Assay: yeast display, Sf9 membrane polyspecificity reagent, FACS + sequencing; frameworks hold sequencing errors
Summary of the method: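 Polyreactivity labels are assigned by the sorting gate from which each nanobody was recovered. The gates were low and high (top ~1%), set on anti-HA fluorescence for expression and streptavidin fluorescence for reagent binding. Before sorting, galactose-induced (36–48 hours) yeast display cells were stained for 1 hour at 4 °C with 10% biotinylated, detergent-solubilized Sf9 membrane reagent.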

| Sequence | polyreactivity (PSR sort gate) |
| --- | --- |
| QVQLVESGGGLVQAGGSLRLSCAASGSIFITYAMGWYIQAPGKERELVTAIRDSGDRTYYADSVKGRFTISRDNAKNTVYLQMNSLKPEDTSVYYCAAVLYSRLYWDRLDYWGQGTQVTVSS | low polyreactivity |
| QVQLVESGGGLVQAGGSLRLSCAASGSIFITYAMGWYRQAPGKERELVAAIRDSGDRTYYADSVKGRFTISRDNAKNTVYLQMNSLKPEDTAVYYCAKRAWGSPYGYWGQGTQVTVSS | low polyreactivity |
| QVQLVESGGGLVQAGGSLRLSCAASGSIFITYAMGWYRQPPGKERELVATITSRSGGTYYADSVKGRFTISRDNAQNTVYLQMNSLKPEDTAVYYCNAVYTYPVFHGMGYWGQGTQVTVSS | high polyreactivity |
| QVQLVESGGGLVQAGGSLRLSCAASGSIFITYAMVWSRQAPGKERELVAAIRDSGDRTYYADSVKGRFTISRDNAKNTVYLQMNSLKPEDTAVYYCAADYFVQVPDYYYASEYGYWGQGTQVTVSS | low polyreactivity |
| QVQLVESGGGLVQAGGSLRLSCAASGSIFIVNVMGWYRQAPGKERELVAGITTNGGITYYADSVKGRFTISRDNAKNTVYLQMNSLKPEDTAVYYCATRSGSPSSIEMDYWGQGTQVTVSS | low polyreactivity |
| QVQLVESGGGLVQAGGSLRLSCAASGSIFIVYAMGWYRQAPGKERELVAAISYRGGSTYADSVKGRFTISRDNAKNTVYLQMNSLKPEDTAVYYCAADDLSYVGYYYGYVDDDYWGQGTQVTVSS | high polyreactivity |
| QVQLVESGGGLVQAGGSLRLSCAASGSIFIWYSMGWYRQAPGKERELVASITYSAGRTYYADSVKGRFTISRDNAKNTVYLQMNSLKPEDTAVYYCAADSPYVYTLDSYGEGDYWGQGSQVTVSS | low polyreactivity |
| QVQLVESGGGLVQAGGSLRLSCAASGSIFIYYAMGWTRQAPGKERELVATISSDDRTNYTDSVKGRFTISRDNAKNTVYLQMNSLKPEDTAVYYCAADRYWGGRDGPEYDYWGQGTQVTVSS | low polyreactivity |
| QVQLVESGGGLVQAGGSLRLSCAASGSIFIYYAMGWYRQAPGKERELVAAISSSGGSTYYADSVKGRFTISRDNAKNTVYLQTNSLKPEDTAVYYCATVPYRYYDDDYWGQGTQVTVSS | high polyreactivity |
| QVQLVESGGGLVQAGGSLRLSCAASGSIFIYYAMGWYRQPPGKERELVAAISYSDGDTYYADSVKGRFTISRDNAKNTVYLQMNSLKPEDTAVYYCAAEVTLSYDVGWEDYWGQGTQVTVSS | high polyreactivity |
| QVQLVESGGGLVQAGGSLRLSCAASGSIFIYYTMGWYRQAPGKERELVAAISWRGGRTYYADSVKGRFTISRDNAKNTVYLQMNSLKPEDTAVYYCNAQPSVYYGRWGLNYGYWGQGTQVTVSS | high polyreactivity |
| QVQLVESGGGLVQAGGSLRLSCAASGSIFKCNSRGWYRQAPVKERELVAAITFSGSSTFYADSVKGRFTISRDTAKNTVYLQMNSLKTEDSALYYCNAVRRQQFGSWGQGTQGTVSS | high polyreactivity |
| QVQLVESGGGLVQAGGSLRLSCAASGSIFKDYAMGWYRQAPGKERELVAAITSGGRTNYADSVKGRFTISRDNAKNTVYLQMNSLKPEDTAVYYCAARKGKETLYHSTPPYYYWGQGTQVTVSS | low polyreactivity |
| QVQLVESGGGLVQAGGSLRLSCAASGSIFKFYTMGWYRQAPGKERELVAAISWSGGRTYYADSVKGRFTISRDNAKNTVYLQMNSLKPEDTAVYYCAVPRVGLHGIGSDYWGQGTQVTVSS | high polyreactivity |
| QVQLVESGGGLVQAGGSLRLSCAASGSIFKFYTMGWYRQAPGKERELVATISRSGGGTFYADSVKGRFTISGDNSKNTVYLQMNSLKPEDTAVYYCSADPAFTHYPFGYGYWGQGTQVTVSS | low polyreactivity |
| QVQLVESGGGLVQAGGSLRLSCAASGSIFKGNAMGWYRQAPRKERELVATITSSGDSTNYADSVKGRFTISRDNAKNTVYLQMNSLKPEDTAVYYCATEPFRYSLAGGYWGQGTQVTVSS | low polyreactivity |

| Sequence | polyreactivity (PSR sort gate) |
| --- | --- |
| QVQLVESGGGLVQAGGSLRLSCAASGSIFKGYAMGWYRQAPGKERELVAAISGGGGSTYYADSVKGRFTISRDNAKNTVYLQMNSLKPEDTAVYYCNRDDSWSTTGAYDYWGQGTQVTVSS | low polyreactivity |
| QVQLVESGGGLVQAGGSLRLSCAASGSIFKGYAMGWYRQAPGKERELVASISWRGDNTYYADSVKGRFTISRDYAKNTVYLQMNSLKPEDTAVYYCNAQSREHYFFIYDYWGQGTQVTVSS | high polyreactivity |
| QVQLVESGGGLVQAGGSLRLSCAASGSIFKIYAKGWYRQAPGKERELVASITGSGGSTYYADSVKGRFTISRDNAKNTVYLQMNSLKPEDTAVYYCAAAVLGSSKSEVDPDRPEYYYWGQGTQVTVSS | low polyreactivity |
| QVQLVESGGGLVQAGGSLRLSCAASGSIFKIYAMGWYRQAPGKERELVAAITINGGSTYYADSVKGRFTISRDNAKNTVYLLMNSLKPEDTAVYYCAADFFHRAGWYFAYGHWGQGTQVTVSS | low polyreactivity |
| QVQLVESGGGLVQAGGSLRLSCAASGSIFKKYAMGWYRQAPGKERELFAAITRGTYYADSVKGRFTISRDNAKNTVYFQMNSLKPEDTAVYFCNREYWGRGYYRVRGEYDYWGQGTQVTVSS | low polyreactivity |
| QVQLVESGGGLVQAGGSLRLSCAASGSIFKKYAMGWYRQSPGKERELVAAISSTGGSTKYADSVKGRFTISRDNAKNTVYLQMNSLKPEDTAVYYCAVRYKWPYDYWGQGTQVTVSS | high polyreactivity |
| QVQLVESGGGLVQAGGSLRLSCAASGSIFKPYAMGWYRQAPGKERELVAAISSSGGSTYYADSVKGRFTISRDNAKNTVYLQMNSLKPEDTAVYYCNADWYYAGYGYWGQGTQVTVSS | low polyreactivity |
| QVQLVESGGGLVQAGGSLRLSCAASGSIFKPYVMGWYRQAPGKERELVAAITSSGVSTYYADSVKGRFTISRDNAKNTVYLQMNSLKPEDTAVYYCAADQYLGRAWRRRGYYWGQGTQVTVSS | high polyreactivity |
| QVQLVESGGGLVQAGGSLRLSCAASGSIFKQNNMGWYRQAPGKERELVAAISSGGSTYYADSVKGRFTISRDNAKNTVYLQMNSLKPEDTAVYYCAKYYDWDYYLPLEGDYWGQGTQVTVSS | low polyreactivity |
| QVQLVESGGGLVQAGGSLRLSCAASGSIFKRYAMGWYRQAPGKERELVAAISTSGGRTYYADSVKGRFTISRDNAKNTVYLQMNRLNQEDTAVYYCAADIWARYYFWGFEHDYWGQGTQVTVSS | low polyreactivity |
| QVQLVESGGGLVQAGGSLRLSCAASGSIFKRYARGWYRPAPGKERELVAAISWSGGNTYYADSVKGRFTISRDNSKNTVYLQMNSLKPEDTAVYYCAKRYRGGYYYPYNYWGQGTQVTVSS | high polyreactivity |
| QVQLVESGGGLVQAGGSLRLSCAASGSIFKSYAMGWYRQAPGKERELVAAISGRTGSTYYADSVKGRFTISRDNAKNTVSLQMNSLKPEDTAVYYCAAKSQSLYPFAMNYWGQGTQVTVSS | high polyreactivity |
| QVQLVESGGGLVQAGGSLRLSCAASGSIFKSYAMGWYRQAPGKERELVAAISGSGGRTYYADSVKGRFTISRDNAKNTAYLQMNSLKPEDTAVYYCNALASIRTHTGYAYSPPYDYWGQGTQVTVSS | high polyreactivity |
| QVQLVESGGGLVQAGGSLRLSCAASGSIFKTNAMGWYRQAPGKERELVAGISNGGSTNYADSVKGRFTISRDNAKNTVYFQMNSLKPEDTAVYYCAAEYEYLWSQYLTDYGYDSWGQGTQVTVSS | low polyreactivity |
| QVQLVESGGGLVQAGGSLRLSCAASGSIFKVYAMGWYRQAPGTERELVAGITLNGGSTYYADSVKGRFTISRDNAKNNVYLQMNSLKPEDTAVYYCNAVYSYYYRWYYDFDYWGQGTQVTVSS | high polyreactivity |

From the nanobody polyreactivity screen of Harvey et al. (2022)
